# Reference: US20190330277A1
# Tests used:
# RB94 DS-Cav1 Long FdPL = test: ELISA, variant from culture supernatant on Ni-NTA plate
# [1] = biological target: 391-2-DS-Cav1-BZGJ9 Long S190V; test: as above
# [2] = biological target: bRSV RB94 DSCav1 (bovine respiratory syncytial virus, strain RB94) (UniProt P23728); test: biolayer interferometry Octet binding analysis
substance,measurement,setting,value
motavizumab (antibody),ELISA binding value,RB94 DS-Cav1 Long FdPL,0.841
same,ELISA binding value,[1],1.31
same,response level (biolayer interferometry),[2],0.5 nm
